B1: blood clotting factor Xa (enzyme)
chain 1: ANSFLEEMKKGHLERECMEETCSYEEAREVFEDSDKTNEFWNKYKDGDQCETSPCQNQGKCKDGLGEYTCTCLEGFEGKNCELFTRKLCSLDNGDCDQFCHEEQNSVVCSCARGYTLADNGKACIPTGPYPCGKQTLER
chain 2: IVGGQECKDGECPWQALLINEENEGFCGGTILSEFYILTAAHCLYQAKRFKVRVGDRNTEQEEGGEAVHEVEVVIKHNRFTKETYDFDIAVLRLKTPITFRMNVAPACLPERDWAESTLMTQKTGIVSGFGRTHEKGRQSTRLKMLEVPYVDRNSCKLSSSFIITQNMFCAGYDTKQEDACQGDSGGPHVTRFKDTYFVTGIVSWGEGCARKGKYGIYTKVTAFLKWIDRSMKTRGLPKAKSHAPEVITSSPLK
B2: rat skin trypsin IV (enzyme, UniProt P12788 24-247, looked up)
chain: IVGGYTCPKHLVPYQVSLHDGISHQCGGSLISDQWVLSAAHCYKRKLQVRLGEHNIHVLEGGEQFIDAEKIIRHPEYNKDTLDNDIMLIKLKSPAVLNSQVSTVSLPRSCASTDAQCLVSGWGNTVSIGGKYPALLQCLEAPVLSASSCKKSYPGQITSNMFCLGFLEGGKDSCDGDSGGPVVCNGEIQGIVSWGSVCAMRGKPGVYTKVCNYLSWIQETMANN
notes: rat trypsin IV, in house expressed; construct not described; also called rat trypsin IV; source: in house expressed
B3: C-terminal hexa-histidine tagged recombinant Ixodes scapularis serpin 17 (rIxsS17) (natural protein)
chain: DDISQDKWKLARANNYLGLNLLKQLPSNDKTNVFFSPFSVSTAMGMAYAGARGDTLEQLTLNFGYAADELNEGKVLALFKEQLQSTNDLPHDYTLNIANAAVAQEGYGILPEYTDALTSSFGAEYIEADFQKRGQEAIQKINAWVSNRTHGKVQSLFDEPPDFSTRLILLNAIYYKGTWLYEFDKTKTKPRSFYNGGVEKVQVPMMRLKSTLNHTYNAILNADLVDLPYVGNDFSMTIILPREKTGLASLKSVLTSQTLNLALQNMYPKDMKLKLPKFKLDTKYTLKPTLEAMGITKIFSADADLSGISGSRNLYVSDVLHKAVLEVNEEGSEAAAVTGFVIQLRTAAFVTPPPLPKVYVDHPFIFLIRNSRTNTIMFLGEINAL
modifications: glycosylated (sites not given)
notes: Ixodes scapularis tick saliva serpin 17 (IxsS17), GenBank EEC18973.1; Codon-optimised synthetic gene in pPICZαA; also called C-terminal-His-rIxsS17; C-terminal His-tagged rIsS17; source: Pichia pastoris X33, secreted into medium, purified (ammonium sulfate, Hi-Trap Chelating HP); not shown: His6, C-terminal, kept

How the values were obtained:
[1] = target: bovine pancreatic trypsin (bovine)
[2] = target: bovine pancreatic trypsin (bovine); assay: stoichiometry of inhibition from residual protease activity (substrate hydrolysis); molar ratios of His-tagged rIxsS17 to protease 0, 2.5, 5, 10, 20, 25, 50; 15 min at 37°C; bovine trypsin 1.5 nM, rat trypsin IV 2.0 nM or factor Xa 13.9 nM; linear regression extrapolated to zero activity
[3] = target: bovine pancreatic trypsin (bovine); assay: discontinuous inhibition kinetics from residual protease activity (second-order rate constant); rIxsS17 50-1000 nM with bovine trypsin 14.6 nM, trypsin IV 12.5 nM or fXa 13.9 nM for 0-15 min at 37°C; kobs from semi-log plots, ka from the slope of kobs against rIxsS17 concentration
[4] = target: B3; assay: as above; conditions: both partners purified
rat skin trypsin IV = target: B2; assay: stoichiometry of inhibition from residual protease activity (substrate hydrolysis); molar ratios of His-tagged rIxsS17 to protease 0, 2.5, 5, 10, 20, 25, 50; 15 min at 37°C; bovine trypsin 1.5 nM, rat trypsin IV 2.0 nM or factor Xa 13.9 nM; linear regression extrapolated to zero activity; conditions: both partners purified
blood clotting factor Xa = target: B1; assay: as above; conditions: both partners purified

Molecule “N-terminal hexa-histidine tagged rIxsS17 with TEV site (natural protein)” has a decrease in the inhibitory activity against trypsin of the N-terminal hexa-His construct (substrate hydrolysis assay) [1] of 8.6%.

Molecule “C-terminal hexa-histidine tagged recombinant Ixodes scapularis serpin 17 (rIxsS17) (from UniProt A0ACM8DKW3 71-455) (natural protein)” has a stoichiometry of inhibition (SI) [2] of 12.9 and a kon [3] of 2700 M⁻¹ s⁻¹.

B1 gave a kon [4] of 540 M⁻¹ s⁻¹.

With B2 the kon [4] was 3900 M⁻¹ s⁻¹.

With B3 the “stoichiometry of inhibition (SI)” value (rat skin trypsin IV) was 10.5 and the “stoichiometry of inhibition (SI)” value (blood clotting factor Xa) was 68.
